Common to all, as to assay type: cell-based
In series [1] the test system is gene editing with Cas9 and dCas9. In words: Screen of 322 new SSAP proteins, activity across all experiments (Cas9 and dCas9, Table 5). More on the design: scale not given here. In short, it runs like this: (§1)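 First, 322 new single-strand annealing proteins are identified from sequences. Next they are synthesized. Finally each is assayed for editing in combination with Cas9 and, separately, dCas9.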

For a further series, the system named is gene editing with dCas9. The series is described as follows: Screen of 322 new SSAP proteins, gene editing activity with dCas9 (Table 5). Further details: dCas9 with SSAP activity: scale not given here. The procedure, abridged:
as §1

The test system of the next series is gene editing with Cas9. In words: Screen of 322 new SSAP proteins, gene editing activity with Cas9 (Table 5). More on the design: Cas9 with SSAP activity: scale not given here. The procedure, abridged:
as §1

The subject of series [2] is endogenous genome targets (ACTB, HSP90AA1). In words: Arrayed SSAP library screening, mKate knock-in assay (editing efficiency). The note with it: average of HSP90 and ACTB, 3 days after transfection; for Editing Efficiency (Normalized, Average, two targets): fold over negative control (Flag_HA); for Editing Efficiency (Absolute, Average, two targets): percent of mKate knock-in. As to the method:
Arrayed SSAP library screening on endogenous genome targets (ACTB. HSP90AA1) using mKate knock-in assay.
SSAP-encoding plasmids were purified and quantified.
(§2) Each SSAP encoding plasmid was tested in duplicate, including a negative control (same plasmid encoding Flag_HA which is not expected to promote gene editing). Transfections were in 96-well plates and transfection efficiency was estimated to be 50%.
(§3) Three days after transfection, mKate positive cells and cell viability were quantified across all replicates, along with positive (original RecT SSAP) and negative (Flag-HA control protein) controls. […] At the same time, the cell viability was measured by live cell counts via flow cytometry, to help quantify the fitness effect of SSAP on mammalian cells.
(§4) SSAP proteins are identified by Uniparc deposit number and SEQ ID NO. Alignment numbers correspond to SSAPs in FIGS. 58, 59, and 60.

The subject of a further series is mammalian cells. The series is described as follows: Arrayed SSAP library screening, cell viability by live cell counts via flow cytometry. As to the method: as §2, §3, §4
On the technique in general: A flow cytometer gives signals particle by particle.

B1: SSAP_239: SEQ ID NO: 408; Paenibacillus polymyxa (protein, listed as Paenibacillus polymyxa)
chain: PDKLLVIHDNLNKMLDEKSEAMPTSFNKTRFLQNCMAVLQDTKDIEQCDAKSVARTMLKGAFLGLDFFNKECYAIPYNENIGTKNKPRWIKSLQFQTDYKGEKKLAKKYSTRRVKDIYAKLVRDGDDFREEIESGQPTINFRPLPFNDGIIRGAFAVALFEDGGMIYETMSLKEIEKTRDDYSKQSTGKAWTKSPGEMYKKTVLRRLCKNIELDFDTIEQAQAFEDSSDFDMNKELKPQQQSPLNPNTTIIDAEYEEIKEEPADGPEQE
Consider B1, for which, in series [1], the “Activity across all experiments” value was 1.811. Moreover, in the series on gene editing with dCas9, the “dCas9 with SSAP activity” value was determined as 2.282 and the “dCas9 with SSAP activity (normalized)” value worked out at 1.278. In addition, in the series on gene editing with Cas9, the “Cas9 with SSAP activity” value is 1.340 and the “Cas9 with SSAP activity (normalized)” value is 0.516.

B2: SSAP_152: SEQ ID NO: 321; Clostridiaceae bacterium (protein, listed as Clostridiaceae bacterium)
chain: SNLKKALKTNETKGNSVTVSKAYAMKQLMIKMKGEITSALPTNLSSERFEKVALTAFNSNPKLQKCDPRTFIAAMMQSAQLGLEPNTALGLAYLIPYEVKGINKVQFQIGYKGLLELANRSGKLKTLYAHEVRENDEFDIDYGLEQKLIHKPLLKGNRGNVIGYYAVYHLEPSGYNFVFMTYDEVLEHGKKYSKSFEGGVWEKEFDSMAKKTVIKKLLKYAPLSIEMQKAIVFDESVKGSIDSDMLLVDKEDESIEGSELN
As for B2, in series [2], the “Editing Efficiency (Normalized, Average, two targets)” value is recorded as 6.574 and the “Editing Efficiency (Absolute, Average, two targets)” value was found to be 16.25. Moreover, the “Cell Viability (Average, two targets)” value with mammalian cells worked out at 1.159.

B3: SSAP_10: SEQ ID NO: 179; Bet Escherichia coli (protein, listed as Escherichia coli)
chain: STALATLAGKLAERVGMDSVDPQELITTLRQTAFKGDASDAQFIALLIVANQYGLNPWTKEIYAFPDKQNGIVPVVGVDGWSRIINENQQFDGMDFEQDNESCTCRIYRKDRNHPICVTEWMDECRREPFKTREGREITGPWQSHPKRMLRHKAMIQCARLAFGFAGIYDKDEAERIVENTAYTAERQPERDITPVNNETMQEINTLLIALDKTWDDDLLPLCSQIFRRDIRASSELTQAEAVKALGFLKQKATEQKVAA
On to B3, for which, in series [2], the “Editing Efficiency (Normalized, Average, two targets)” value was found to be 5.75 and the “Editing Efficiency (Absolute, Average, two targets)” value is listed as 14.25. Further, in the series with mammalian cells, the “Cell Viability (Average, two targets)” value is listed as 1.237.

B4: SSAP_98: SEQ ID NO: 267; Pseudomonas fluorescens (protein, listed as Pseudomonas fluorescens)
chain: NSTAETATPFSSQDLEKTQPTKAQSKTGSLASLLASPKMKSQFAAALPKHMTPERMARIVTTEIRKNPELVKCEQHSFLGAVIQCAQLGLEPGNTLGHAYILPYGKQAQLIIGYRGMIDLARRSGQIISISARTVREGDYFEYEFGLDENLIHRPVETTQPGAVTHVYAVARLKDGGRQFEVMSRAQIEEVRVQSKAAKSGPWVTHWEEMAKKTVIRRVFKYLPVSVEIQRAVMLDEKAEAGVCQENECVFDGDFEVITDTEE
B4: in series [1], the “Activity across all experiments” value is on record as −0.971. Moreover, in the series on gene editing with dCas9, the “dCas9 with SSAP activity” value is on record as −2.696 and the “dCas9 with SSAP activity (normalized)” value is listed as −0.444. Further, in the series on gene editing with Cas9, the “Cas9 with SSAP activity” value came out at 0.754 and the “Cas9 with SSAP activity (normalized)” value was found to be 0.207.

B5: SSAP_23: SEQ ID NO: 192 (protein)
chain: TNNQLATQIKRDITTDPSLLTGADIKKYFDPQNLLTEKQVGQALALCKGRNLNPFANEVYIVAYQNNSGTEFSLIVSKEAFMKRAERCEGYDGFEAGITVMRNGEMIEIEGSLKLPEDILIGGWAVVYRKDRSHRYKVTVDFNEYVKTDRNGNPRSTWKSMPATMIRKTALVQTLREAFPDELGNMYTDIDGGDTFDAIKDVTPQESREDVVARKMAQIDQFNKEQEANHADPEPTQNEDPIQGELLDGELEY
With B5, in series [1], the “Activity across all experiments” value is given as −0.998. Further, in the series with gene editing with dCas9, the “dCas9 with SSAP activity” value was −2.835 and the “dCas9 with SSAP activity (normalized)” value is listed as −0.450. In the series with gene editing with Cas9, the “Cas9 with SSAP activity” value was 0.839 and the “Cas9 with SSAP activity (normalized)” value was determined as 0.359.

B6: SSAP_104: SEQ ID NO: 273; Salinicoccus albus (protein, listed as Salinicoccus albus)
chain: STNESLKNQVATNQKNEVSNGNKPKTIGDYIDQMAPAMAQALPKHMSVERMTRMATTVIRTTPQLKEADVASLLGAVMQSAQLGLEPGPMGHCYFLPFKNNKKGTTEVTFIIGYKGMIDLARRSGHISTIYAHAVYENDEFEYELGLHADLKHKPSEDERGAFKGAYAVAHFKDGGYQFEYMPKSDIDKRRSRSKAGNSNYSPWATDYEEMAKKTVIRHMWKYLPVSVEMQQAVAHDEGTGKDIKDVTPDEDSFVDMPEYIADVPAEGEGE
On to B6, for which the “Activity across all experiments” value in series [1] is recorded as −3.455. Also, in the series on gene editing with dCas9, the “dCas9 with SSAP activity” value was −2.685 and the “dCas9 with SSAP activity (normalized)” value is on record as −0.421. In the series on gene editing with Cas9, the “Cas9 with SSAP activity” value is listed as −4.226 and the “Cas9 with SSAP activity (normalized)” value is on record as −0.744.

B7: SSAP_154: SEQ ID NO: 323; Corynebacterium urealyticum (protein, listed as Corynebacterium urealyticum)
chain: AKNLEARMQQSTNAPARADKPLSLPDQIRQMEDQFRLAMPKGAEATQLVRDALTCLRQTPQLAQCTPASVLGGLMTCAQLGLRPGVLGHAYLIPFNDRRSGNSVAQLVIGYQGLVELAHRSGQIKALIARTVYENDHFDVDYGLEDKLVHKPHMGADKGNPVAYYAVVKFTTGGHAFYVMSHPEMLQYRDKNAKSPKRGPWVDNFEAMAHKTCVRQLAKWMPKSTEFSQALATDESIRLDVTPDAINYPDHPAEGEVIDGEVEQDGGQQ
Turning to B7, the “Activity across all experiments” value in series [1] is recorded as −1.758. In addition, in the series with gene editing with dCas9, the “dCas9 with SSAP activity” value is −2.710 and the “dCas9 with SSAP activity (normalized)” value is given as −0.380. In the series on gene editing with Cas9, the “Cas9 with SSAP activity” value is listed as −0.806 and the “Cas9 with SSAP activity (normalized)” value is reported as −0.733.

B8: SSAP_67: SEQ ID NO: 236 (protein)
chain: TSQQLDTTHTINQQVTTFRHTLVQMKNEIAAALPAHMTGDRFLRLILTEVRKNPELAECSTESIFGGILTAAALGLEPGLNGECWLIPRKVGKGPGSRKEATFQVGYKGIIKLFWQNPLASYLDTGVVYANDAWKFRKGLDPILEHTPATGDRGAVRGYYAVVGLTTGARIFDFFTPKQISALRGTAGPNGGISDPEHWMERKTALLQVMKMAPKSTDLASAASVDGTVQTVEAAAQVAAASTGPVNPTTGEVLEAEPVEGGAA
In the case of B8, in series [2], the “Editing Efficiency (Normalized, Average, two targets)” value came out at 4.616 and the “Editing Efficiency (Absolute, Average, two targets)” value is 11.4625. In addition, in the series with mammalian cells, the “Cell Viability (Average, two targets)” value turned out to be 1.088.

B9: SSAP_64: SEQ ID NO: 233 (protein)
chain: SELQQAAQGQQSNNPVSFIYSHAKDIQNVLTKGTDMDRWLQMARLAVMRDQNLVASAKRDPGSLMQALLDCAEKGHVPGTEDYYLVPRKGGIQGMESWKGIAKRIMRSGRYQSIVNEVVYEGETFEFNPNTMDRPVHNINYMTRTSGKPVMSYAYALDHDGKPSSVAIADPRYIAKVKKNSRGSVWEDWDEQMYRKTAVKMLQDYVDTSSVDRRDVSTVQVDDANVIDVDDTFTAREAGE
Consider B9, for which, in series [1], the “Activity across all experiments” value is −0.583. Besides, in the series on gene editing with dCas9, the “dCas9 with SSAP activity” value was −2.755 and the “dCas9 with SSAP activity (normalized)” value is on record as −1.023. In addition, in the series on gene editing with Cas9, the “Cas9 with SSAP activity” value is given as 1.588 and the “Cas9 with SSAP activity (normalized)” value was 1.090.

B10: SSAP_218: SEQ ID NO: 387; Streptococcus lutetiensis (protein, listed as Streptococcus lutetiensis)
chain: ANQLQMSHKDFFNRPAVKNKFSEVVSGKSDQFITSLLSVVNNNKLLSKADNNSILNAAMKAATLNLPIEPSLGSAYIVPFKGQAQFQLGYKGLIELAQRSGQYKSINAGVVYKAQFKSYDPLFETLDLDFNQPQDEVIGYFACFELLNGFRKITYWTREEVYNHGKRFSKSFNNGPWKTDFDAMAKKTLLKSIIGTYGPKSVDMQEAITDDNKTEYEKAEPIDVTPQEENLTDLIGETPQEELPIANPETGEIQEEQTALFNQLGDLTDD
Regarding B10, the “Activity across all experiments” value in series [1] was −4.836. Further, in the series on gene editing with dCas9, the “dCas9 with SSAP activity” value is −2.770 and the “dCas9 with SSAP activity (normalized)” value is −0.443. Also, in the series on gene editing with Cas9, the “Cas9 with SSAP activity” value is listed as −6.903 and the “Cas9 with SSAP activity (normalized)” value was −1.680.

B11: SSAP_29: SEQ ID NO: 198 (protein)
chain: STALATLAGKLAERVGMDSVDPQELITTLRQTAFKGDASDAQFIALLIVANQYGLNPWTKEIYAFPDKQNGIVPVVGVDGWSRIINENQQFDGMDFEQDDESCTCRIYRKDRNHPICVTEWMDECRRAPFKTREGREITGPWQSHPKRMLRHKAMIQCARLAFGFAGIYDKDEAERIVENTAYTTERQPERDITPVNEETMSEINALLTSMEKTWDDDLLPLCSQIFRRYIRASSELSQAEAEKVLGFLKQKATEQKVAA
Take B11: in series [2], the “Editing Efficiency (Normalized, Average, two targets)” value is recorded as 5.204 and the “Editing Efficiency (Absolute, Average, two targets)” value is 12.9225. For the same molecule, the “Cell Viability (Average, two targets)” value with mammalian cells was 1.131.

The record behind these values is patent US20250034594A1, “RNA-GUIDED GENOME RECOMBINEERING AT KILOBASE SCALE” (THE BOARD OF TRUSTEES OF THE LELAND STANFORD JUNIOR …, priority 2021, published 2025).
